Target: T1, Tsr2-N (recombinant, binding assays) (S. cerevisiae (yeast), UniProt Q06672 1-152)
T1 chain: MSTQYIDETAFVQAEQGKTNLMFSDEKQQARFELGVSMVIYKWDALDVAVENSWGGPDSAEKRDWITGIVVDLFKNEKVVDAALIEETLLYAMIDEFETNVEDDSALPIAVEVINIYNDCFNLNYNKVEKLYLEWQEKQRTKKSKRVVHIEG
Experiment: ITC

Kd: 720 nM
Binder: RPRFNRENKVSPADAAKKAL [ESS2 peptide]
